The target in this assay is Toll-like receptor 4 (TLR4) on mouse bone marrow-derived dendritic cells (mouse (endogenous in bone marrow-derived DCs)) (UniProt Q9QUK6). The experiment in a line: flow cytometry on cells; immature bone marrow-derived DCs of WT C57 BL/6 mice, pre-incubated with IgG1 isotype, TLR2 blocking or TLR4 blocking antibody on ice for 1 h, then stained with anti-CD11c APC, anti-TLR2-FITC, anti-TLR4-PE-Cy7 and rTs-Hsp70-PE on ice for 30 min; rTs-Hsp70-PE and TLR2-FITC or TLR4-PE-Cy7 double positive cells among CD11c+ cells.
UniProt Q9QUK6, sequence (Q9QUK6 26-835): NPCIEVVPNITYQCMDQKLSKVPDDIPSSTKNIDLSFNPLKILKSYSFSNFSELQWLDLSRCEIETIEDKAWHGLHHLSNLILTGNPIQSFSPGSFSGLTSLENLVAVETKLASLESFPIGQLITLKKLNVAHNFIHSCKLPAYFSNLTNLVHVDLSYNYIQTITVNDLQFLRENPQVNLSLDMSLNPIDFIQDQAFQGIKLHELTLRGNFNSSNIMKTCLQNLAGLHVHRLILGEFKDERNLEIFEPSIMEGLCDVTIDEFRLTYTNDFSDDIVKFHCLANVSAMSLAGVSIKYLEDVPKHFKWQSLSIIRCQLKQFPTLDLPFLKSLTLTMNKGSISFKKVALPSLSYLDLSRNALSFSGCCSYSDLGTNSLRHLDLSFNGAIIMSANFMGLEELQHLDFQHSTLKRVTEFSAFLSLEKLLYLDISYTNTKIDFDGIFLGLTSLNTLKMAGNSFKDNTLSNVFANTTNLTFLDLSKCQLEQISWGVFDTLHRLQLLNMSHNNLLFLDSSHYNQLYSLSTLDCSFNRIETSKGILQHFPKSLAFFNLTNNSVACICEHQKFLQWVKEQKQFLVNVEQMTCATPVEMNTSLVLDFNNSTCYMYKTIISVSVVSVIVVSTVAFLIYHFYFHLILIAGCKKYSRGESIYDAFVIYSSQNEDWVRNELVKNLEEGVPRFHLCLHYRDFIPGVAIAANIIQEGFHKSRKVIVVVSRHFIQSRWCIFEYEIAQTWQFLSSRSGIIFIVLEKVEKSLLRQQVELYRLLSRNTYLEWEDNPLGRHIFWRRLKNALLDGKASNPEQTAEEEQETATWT

Substance “Recombinant Trichinella spiralis Heat shock protein 70 (natural protein)” showed a percent of TLR4+ cells on CD11c+ DCs bound by rTs-Hsp70 of 12.3%.

The record behind these values is PMC5979045.
